In paper PMC8882607 (Journal of Molecular Biology, 2022):

How the values were obtained:
Assay in all cases: ITC
G3BP1_(NTF2) F33A mutant = G3BP1_(NTF2) F33A mutant (human, UniProt Q13283 1-139, F33A)
[1] = molecular target: G3BP1_(NTF2) F124A mutant (human, UniProt Q13283 1-139, F124A)
G3BP1_(NTF2) V11A mutant = G3BP1_(NTF2) V11A mutant (human, UniProt Q13283 1-139, V11A)
G3BP1_(NTF2) Q18A mutant = G3BP1_(NTF2) Q18A mutant (human, UniProt Q13283 1-139, Q18A)
[2] = molecular target: NTF2-like domain of human G3BP1 (residues 1-139) (human, UniProt Q13283 1-139)
Chain of NTF2-like domain of human G3BP1 (residues 1-139) (Q13283 1-139): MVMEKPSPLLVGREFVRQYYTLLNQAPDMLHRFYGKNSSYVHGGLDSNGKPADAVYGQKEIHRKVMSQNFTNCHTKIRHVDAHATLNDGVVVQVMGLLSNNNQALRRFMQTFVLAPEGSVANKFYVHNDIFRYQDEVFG

Chain of G3BP1_(NTF2) F33A mutant (Q13283 1-139 F33A): as the sequence (Q13283 1-139) above, with F33A counted along it
Chain of G3BP1_(NTF2) V11A mutant (Q13283 1-139 V11A): as the sequence (Q13283 1-139) above, with V11A counted along it
Chain of G3BP1_(NTF2) F124A mutant (Q13283 1-139 F124A): as the sequence (Q13283 1-139) above, with F124A counted along it
Chain of G3BP1_(NTF2) Q18A mutant (Q13283 1-139 Q18A): as the sequence (Q13283 1-139) above, with Q18A counted along it

B1: SARS-CoV-2 N_(1–25) peptide (residues 1-25 of the N protein) (peptide)
peptide: MSDNGPQNQRNAPRITFGGPSDSTG
dH (G3BP1_(NTF2) F33A mutant): -21.3 kcal/mol | fold reduction of binding against wild-type G3BP1_(NTF2) [1]: ~20 fold | fold reduction of binding against wild-type G3BP1_(NTF2) (G3BP1_(NTF2) V11A mutant): ~10 fold | dH (G3BP1_(NTF2) Q18A mutant): -15.1 kcal/mol

B2: SARS-CoV-2 N_(1–25) peptide, G18T mutant (peptide)
peptide: MSDNGPQNQRNAPRITFTGPSDSTG
fold reduction of binding affinity against wild-type N_(1–25) [2]: ~6 fold

B3: SARS-CoV-2 N_(1–25) peptide, I15A mutant (peptide)
peptide: MSDNGPQNQRNAPRATFGGPSDSTG
fold reduction of binding against wild-type N_(1–25) [2]: > 10 fold

B4: SARS-CoV-2 N_(1–25) peptide, T16A mutant (peptide)
peptide: MSDNGPQNQRNAPRIAFGGPSDSTG
fold reduction of binding against wild-type N_(1–25) [2]: ~3 fold
